This note sets out measurements from patent US20220204575A1, “MODULATING SURVIVAL OF THERAPEUTIC CELLS AND METHODS, CELLS AND NUCLEIC ACIDS RELATED THERETO” (The Regents of the University of California, priority 2019, published 2022).

For assay [1], the system named is human primary CD4 T cells. The experiment in a line: Anti-Her2 synNotch driving pro-apoptotic BCL-2 family protein X, T cell survival with antigen-expressing target cells. The conditions noted are these: for induced apoptosis of T cells: in the presence of antigen-expressing target cells. The assay is classed as cell-based. As for the experimental part:
For example, a circuit was designed, as schematically depicted in FIG. 27, with an anti-Her2 synNotch driving expression of a pro-apoptotic BCL-2 family protein “X”, where X stands for the various pro-apoptotic BCL-2 family members were tested in the depicted circuit. As shown, upon the anti-Her2 scFv portion of the synNotch receptor binding Her2 expressed by a target cell, the transcription factor (TF) portion of the synNotch, containing Gal4-VP64, is released and inducing expression of the pro-apoptotic BCL-2 family protein “X”. The level of induced apoptosis in the presence of cells expressing the target antigen, as compared to control cells not expressing the target antigen, was then assessed.
Results of testing BID, tBID, PUMA, BMF, HRK and BIK as pro-apoptotic BCL-2 family protein “X” in this system are shown in FIG. 28, along with a negative control employing BFP in place of the pro-apoptotic BCL-2 family protein “X”.
Thus, the therapeutic cells encoding the BID circuit were able to survive BID induction.

Another assay deals with primary human T cells. Description: Constitutive overexpression of pro-apoptotic BCL-2 family proteins in T cells, FACS at culture day 12. The assay is classed as cell-based. The conditions noted are these: constitutive expression. The procedure:
The abilities of several pro-apoptotic proteins (e.g., BIM, truncated Bid (tBID), and BAD) to induce T cell apoptosis when synthetically overexpressed from a constitutive promoter were tested. The tested T cells were also engineered to constitutively overexpress anti-apoptotic BCL-2.
Without being bound by theory, these effects were likely due to leaky expression of BIM, the high effectiveness of BIM in inducing apoptosis, or a combination thereof.

B1: PUMA: pro-apoptotic PUMA protein, human UniProt Q9BXH1 (protein, UniProt Q9BXH1 1-193, looked up)
Bcl-2-binding component 3, …: MARARQEGSSPEPVEGLARDGPRPFPLGRLVPSAVSCGLCEPGLAAAPAAPTLLPAAYLCAPTAPPAVTAALGGSRWPGGPRSRPRGPRPDGPQPSLSLAEQHLESPVPSAPGALAGGPTQAAPGVRGEEEQWAREIGAQLRRMADDLNAQYERRRQEEQQRHRPSPWRVLYNLIMGLLPLPRGHRAPEMEPN
B1: the “induced apoptosis of T cells” value in assay [1] is “induce apoptosis of human primary CD4 T cells”.

B2: BIK: pro-apoptotic BIK protein, human UniProt Q13323, SEQ ID NO: 104 (protein)
chain: MSEVRPLSRDILMETLLYEQLLEPPTMEVLGMTDSEEDLDPMEDFDSLECMEGSDALALRLACIGDEMDVSLRAPRLAQLSEVAMHSLGLAFIYDQTEDIRDVLRSFMDGFTTLKENIMRFWRSPNPGSWVSCEQVLLALLLLLALLLPLLSGGLHLLLK
B2: the “relative level of induced therapeutic cell killing” value in assay [1] (comparison among tBID, PUMA, BMF, HRK and BIK) is given as “lower level of induced therapeutic cell killing”. Moreover, in assay [1], the “induced apoptosis of T cells” value is reported as “induce apoptosis of human primary CD4 T cells”.

B3: BAD: pro-apoptotic BH3-only BCL-2 family protein, UniProt Q92934, heterologously expressed in T cells (protein, UniProt Q92934 1-168, looked up)
Bcl2-associated agonist of …: MFQIPEFEPSEQEDSSSAERGLGPSPAGDGPSGSGKHHRQAPGLLWDASHQQEQPTSSSHHGGAGAVEIRSRHSSYPAGTEDDEGMGEEPSPFRGRSRSAPPNLWAAQRYGRELRRMSDEFVDSFKKGLPRPKSAGTATQMRQSSSWTRVFQSWWDRNLGRGSSAPSQ
As for B3, the “ability to drive T cell death” value with primary human T cells (in the absence of overexpressed BCL-2) is on record as “insufficient to drive T cell death”. For the same molecule, the “ability to induce T cell apoptosis / drive T cell death” value in the assay on primary human T cells (with constitutive overexpression of BCL-2, culture day 12) is listed as “insufficient to drive T cell death”.
